These are literature values, as cited in PMC8061042.

For this data set, the target named is MS1.
Chain of MS1 (main, as listed by the source): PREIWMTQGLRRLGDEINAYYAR

On to MCL-1 (from UniProt Q07820), for which the Kd – broadly, the constant that tells how readily two partners part at equilibrium – is 1.9 nM.
